Target: Casp-Cas9 (Aciduliprofundum boonei T469 / …, UniProt B5IAF4 1-404+=GGSGGSGGSGGSGGSGGSGGSGGS+Q99ZW2:1-1368, internal_change)
Assay: R-loop formation gel assay (deproteinised); sgran50; 5 mM EDTA; 25 mM Tris pH 7.5, 106 mM KCl, 50 ug/ml BSA, 5 mM EDTA, 2 mM DTT, 9% glycerol, 37 C; 150 nM protein, 300 nM sgRNA, 25 nM Cy5-dsran50, 75 nM unlabelled MW12 dsDNA competitor; 8% acrylamide TBE gel
Details: protein: recombinant, tags: His6, label: 5'-Cy5 on ssran50 strand (strand 2), blunt 50 bp DNA target plus sgRNA, PAM TGG

B1: sgran50 + dsran50 (mixed)
RNA: GGUAGACGAUUACAUUGCUACAGUUUUAGAGCUAGAAAUAGCAAGUUAAAAUAAGGCUAGUCCGUUAUCAACUUGAAAAAGUGGCACCGAGUCGGUGCUU
DNA 1: CAACGTCATAGACGATTACATTGCTACATGGAGCTGTCTAGAGGATCCGA
DNA 2: TCGGATCCTCTAGACAGCTCCATGTAGCAATGTAATCGTCTATGACGTTG
binding result: binds

From article PMC7786333, “Integration of diverse DNA substrates by a casposase can be targeted to R-loops in vitro by its fusion to Cas9”
